One substance from patent US20230399385A1 can be followed below.

In the assay the target is SARS-CoV-2 spike (S) glycoprotein, wild-type, on pseudotyped virus (SARS-CoV-2) (UniProt P0DTC2). Nature of the assay: cell-based or functional assay.

Chain of JS016 (antibody) (VH): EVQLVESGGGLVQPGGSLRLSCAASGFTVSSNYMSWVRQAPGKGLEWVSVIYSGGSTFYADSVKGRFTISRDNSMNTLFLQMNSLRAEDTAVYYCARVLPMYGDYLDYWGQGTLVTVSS
Chain of JS016 (antibody) (VL): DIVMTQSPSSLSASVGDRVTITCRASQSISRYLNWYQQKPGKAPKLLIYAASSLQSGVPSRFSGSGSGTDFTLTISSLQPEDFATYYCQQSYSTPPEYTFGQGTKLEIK

Regarding JS016 (antibody), the IC50, pseudovirus neutralization study against wild-type SARS-CoV-2 was 0.0631 µg/mL.
